T1: recombinant human IL-31 protein (Peprotech) (human, UniProt Q6EBC2 24-164)
T1 sequence (looked up): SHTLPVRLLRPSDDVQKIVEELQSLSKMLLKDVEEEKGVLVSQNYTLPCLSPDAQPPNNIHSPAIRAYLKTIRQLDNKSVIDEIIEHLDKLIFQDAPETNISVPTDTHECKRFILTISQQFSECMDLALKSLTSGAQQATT


Tests used:
[1] = molecular target: T2, human IL-4R on transfected HEK293T cells (human, UniProt P24394 26-825); test: flow cytometry, transfected HEK293T cells
T2 construct: whole, on cells; also called human IL-4R-expressing HEK293T cells; not shown: V5 Tag fused to the N-terminus of the expression construct
Excerpt: (§1) To test binding of the Morrison-H and Morrison-L antibodies PRO2198, PRO2199, PRO2206 and PRO2207 to human or cynomolgus IL-4R-expressing HEK293T cells, HEK293T cells were transfected with human and cynomolgus IL-4R plasmids and mock plasmid using Lipofectamine3000. Binding of an antibody targeting V5 Tag, which is fused to the N-terminus of human and cynomolgus IL-4R expression constructs, would confirm successful expression of both targets and was thus used as a positive control for plasma membranous binding. The Morrison-H molecule PRO2077 was used as negative control for cynomolgus IL-4R binding since this molecule had not shown any cross-reactivity to cynomolgus IL-4R (see section 5.3.).
(§2) 50,000 transfected HEK293T cells per well were seeded in a 96-well plate. 5-fold serial dilutions of the Morrison-H and Morrison-L antibodies PRO2198, PRO2199, PRO2206 and PRO2207 and of the control molecule PRO2077, which is not cross-reactive to cynomolgus IL-4R, were added at concentrations ranging from 5,000 to 0.32 ng/ml to the plates and incubated for 60 min at 4° C. on a shaker. Supernatants were removed and detection reagent was added for flow cytometry analysis. The geometric mean of the APC fluorescence intensity of single cells was calculated.

[2] = molecular target: T3, cynomolgus IL-4R on transfected HEK293T cells (cynomolgus monkey, UniProt A0A2K5V580 33-832); test: flow cytometry, transfected HEK293T cells
T3 construct: whole, on cells; also called cynomolgus IL-4R-expressing HEK293T cells; not shown: V5 Tag fused to the N-terminus of the expression construct
Excerpt: as §1, §2

[3] = molecular target: T4, human IL-4R on cells (HEK-Blue IL-4/IL-13 cells, human PBMC, human whole blood) (human, UniProt P24394 26-825); test: cell-based or functional assay
[4] = molecular target: T1, recombinant human IL-31 protein …; test: cell-based or functional assay
[5] = molecular target: T1, recombinant human IL-31 protein …; test: SPR, Morrison captured on immobilized human IL-4R-Fc, IL-31 analyte, single-cycle
Experimental: (§3) Binding kinetics (including affinity) of the bispecific Morrison-H (PRO2198, PRO2199) and Morrison-L (PRO2206, PRO2207) molecules to recombinant human IL-31 protein (Peprotech) were determined by SPR analysis on a T200 device (Biacore, Cytiva). In this SPR experiment, Morrison antibodies were injected over a carboxylmethylated dextran surface (CM5 sensorchip; Biacore, Cytiva) immobilized with human recombinant IL-4R protein (ECD with Fc Tag, R&D Systems) and a titration series of human IL-31 was injected as analyte. […] The calculation of the kinetics and the apparent dissociation equilibrium constant (KD) as well as the measurement for the quality of curve fitting were done as described above for IL-4R. The binding level was calculated as the maximum stability binding achieved normalized to the theoretical Rmax. Cross-reactivity to cynomolgus monkey IL-31 was measured using the same setup as for the analysis of human IL-31 affinities, with the difference that recombinant cynomolgus monkey IL-31 (ECD with His Tag, Sino Biological) protein was used as analytes instead of human IL-31.
(§4) After having shown a stable capture of Morrison antibodies via recombinant human IL-4R protein, IL-31 was injected as analyte and the kinetics of the binding of IL-31 to captured Morrison molecules were calculated.

[6] = molecular target: T5, recombinant cynomolgus monkey IL-31 (ECD with His Tag, Sino Biological) (cynomolgus monkey); test: as above
T5 construct: manufactured on demand by Sino Biological; also called cynomolgus IL-31-His; cyno IL-31
Experimental: as §3, §4

[7] = molecular target: T6, recombinant cynomolgus monkey IL-4R (ECD with His-tag, Acro Biosystems) (cynomolgus monkey, UniProt A0A2K5V556 26-232); test: SPR, Morrison captured via anti-human IgG-Fc, IL-4R ECD-His analyte
T6 construct: bought; also called cynomolgus IL-4R
Experimental: (§5) Binding kinetics (including affinity) of the bispecific Morrison-H (PRO2198, PRO2199) and Morrison-L (PRO2206, PRO2207) molecules to recombinant human IL-4R protein (ECD with His Tag, Sino Biological) were determined by SPR analysis on a T200 device (Biacore, Cytiva). In this SPR experiment, Morrison molecules were captured via an anti-human IgG-Fc antibody (Human Antibody Capture Kit; Biacore, Cytiva) covalently immobilized to a carboxylmethylated dextran surface (CM5 sensorchip; Biacore, Cytiva) and a titration series of human IL-4R ECD was injected as analyte. After each analyte injection cycle, the sensor chip was regenerated (MgCl₂), and new Morrison antibody was subsequently re-captured. […] The apparent dissociation (kd) and association (kₐ) rate constants and the apparent dissociation equilibrium constant (KD) were calculated with the Biacore analysis software (Biacore Evaluation software Version 3.2, Cytiva) using one-to-one Langmuir binding model and quality of the fits was monitored based on Chi2 and U-value, which are measures for the quality of the curve fitting. The binding level was calculated as the maximum stability binding achieved normalized to the theoretical Rmax. Cross-reactivity to cynomolgus monkey IL-4R was measured using the same setup as for the analysis of human IL-4R kinetics, with the difference that recombinant cynomolgus monkey IL-4R (ECD with His-tag, Acro Biosystems) protein was used as analyte instead of human IL-4R.

[8] = molecular target: T7, recombinant human IL-4R protein (ECD with His Tag, Sino Biological) (human, UniProt P24394 26-232); test: as above
T7 construct: extracellular domain; bought; also called human IL-4R ECD; not shown: His Tag
Experimental: as §5

[9] = molecular target: T4, human IL-4R on cells (HEK-Blue …); test: cell-based or functional assay; remark: listed apart in the source
[10] = molecular target: T4, human IL-4R on cells (HEK-Blue …); test: cell-based or functional assay; remark: listed apart in the source

T6 sequence (A0A2K5V556 entry or part of it limits assumed): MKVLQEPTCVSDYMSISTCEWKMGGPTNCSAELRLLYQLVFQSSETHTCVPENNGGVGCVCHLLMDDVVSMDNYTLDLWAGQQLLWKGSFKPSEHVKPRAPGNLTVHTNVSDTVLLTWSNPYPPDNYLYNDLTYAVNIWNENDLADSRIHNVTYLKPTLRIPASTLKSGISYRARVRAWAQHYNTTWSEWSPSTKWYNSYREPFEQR
T3 sequence (A0A2K5V580 entry or part of it): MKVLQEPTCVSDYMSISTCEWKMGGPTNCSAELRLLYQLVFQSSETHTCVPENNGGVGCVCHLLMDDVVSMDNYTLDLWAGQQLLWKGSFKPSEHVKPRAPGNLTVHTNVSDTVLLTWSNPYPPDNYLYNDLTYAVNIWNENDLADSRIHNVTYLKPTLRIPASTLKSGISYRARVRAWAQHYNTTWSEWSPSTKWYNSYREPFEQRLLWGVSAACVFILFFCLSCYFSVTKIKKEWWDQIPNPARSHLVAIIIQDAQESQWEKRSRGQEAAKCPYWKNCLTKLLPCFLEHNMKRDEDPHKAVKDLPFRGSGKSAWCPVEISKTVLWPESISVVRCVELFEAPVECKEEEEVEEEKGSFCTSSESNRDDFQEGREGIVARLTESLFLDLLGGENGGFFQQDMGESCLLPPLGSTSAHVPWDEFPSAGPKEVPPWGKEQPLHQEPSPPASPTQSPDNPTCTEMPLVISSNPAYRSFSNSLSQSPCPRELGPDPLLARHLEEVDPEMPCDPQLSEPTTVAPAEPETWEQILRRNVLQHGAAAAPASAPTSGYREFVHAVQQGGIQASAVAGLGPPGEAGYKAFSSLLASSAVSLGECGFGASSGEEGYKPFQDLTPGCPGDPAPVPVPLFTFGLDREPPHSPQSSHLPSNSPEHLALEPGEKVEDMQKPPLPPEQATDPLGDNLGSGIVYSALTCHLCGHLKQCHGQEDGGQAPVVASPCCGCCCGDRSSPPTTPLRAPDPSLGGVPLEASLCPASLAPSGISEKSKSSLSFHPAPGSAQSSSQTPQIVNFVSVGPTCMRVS

Row | EC50 [1] [nM] | EC50 [2] [nM] | IC50 (single analysis), human IL-4-induced signaling, stat-6 reporter gene assay [3] [nM] | IC50 (single analysis), human IL-31-induced signaling, IL-31RA/OSMR dimerization assay [4] [nM] | Kd [5] [nM] | koff [5] [s⁻¹] | kon [5] [M⁻¹ s⁻¹] | Kd [6] [nM] | koff [6] [s⁻¹] | kon [6] [M⁻¹ s⁻¹] | Kd [7] [nM] | koff [7] [s⁻¹] | kon [7] [M⁻¹ s⁻¹] | Kd [8] [nM] | koff [8] [s⁻¹] | kon [8] [M⁻¹ s⁻¹] | IC50, IL-4-induced CD23 expression, memory B cells [9] [nM] | IC50, IL-4-induced CD23 expression, naive B cells [9] [nM] | IC50 (single analysis), human IL-13-induced signaling, stat-6 reporter gene assay [10] [nM] | Binder | further results
1 | 0.83 | 0.9 | 0.0118 | 0.23 | 0.107 | 2.36e-05 | 220000 | 0.169 | < 1e-05 | 59300 | 0.209 | 2.42e-05 | 116000 | 0.0477 | 1.95e-05 | 409000 | 4.34 | 1.48 | 0.0295 | PRO2206 (bispecific antibody, human IgG4 S228P, kappa, IgG4 (S228P) Morrison-L, anti-IL-31 scFv on the C-terminus of the light chain; also called Morrison-L; MorrL) light: DIQMTQSPSSLSARVGDRVTITCQASEDIESYLAWYQQKPGKAPKLLIYRASTLAYGVPSRFSGSGSGRDFTLTISSLQPEDFATYYCLGSSYSTGSNIFGQGTKVEIKRTVAAPSVFIFPPSDEQLKSGTASVVCLLNNFYPREAKVQWKVDNALQSGNSQESVTEQDSKDSTYSLSSTLTLSKADYEKHKVYACEVTHQGLSSPVTKSFNRGECGGGGSGGGGSAFQLTQSPSSLSASVGDRVTITCQASQSIDSWLAWYQQKPGKPPKLLIYQASKLASGVPSRFSGSGSGTDYTLTISSLQPEDFATYYCQTYYGGGHIGWGFGTGTKVTVLGGGGGSGGGGSGGGGSGGGGSQSQLVESGGGRVQPGGSLRLSCAASGFSFSANYWICWVRQAPGKGLEWIVCIYIGSRADTYYAPWAKGRFTISKDNSKNTVYLQMNSLRAEDTATYFCARFSSGIYDLDRFFLWGQGTQVTVSS heavy: not shown | IC50, IL-4-induced CD23 expression, monocytes (blood donor 2) [9]: 0.111 nM
2 | 0.6 | 0.65 | 0.0094 | 0.215 | 0.152 | 2.47e-05 | 163000 | 0.164 | < 1e-05 | 60900 | 0.011 | 2.77e-05 | 2.53e+06 | 0.189 | 4.61e-05 | 244000 | 1.58 | 1.04 | 0.0126 | PRO2207 (bispecific antibody, human IgG4 S228P, kappa, IgG4 (S228P) Morrison-L; also called Morrison-L; MorrL) light: DIQMTQSPSSLSASVGDRVTITCQASEDIESYLAWYQQKPGKAPKLLIYRASTLAYGVPSRFSGSGSGTDFTLTISSLQPEDFATYYCLGSSYSTGSNIFGQGTKVEIKRTVAAPSVFIFPPSDEQLKSGTASVVCLLNNFYPREAKVQWKVDNALQSGNSQESVTEQDSKDSTYSLSSTLTLSKADYEKHKVYACEVTHQGLSSPVTKSFNRGECGGGGSGGGGSAFQLTQSPSSLSASVGDRVTITCQASQSIDSWLAWYQQKPGKPPKLLIYQASKLASGVPSRFSGSGSGTDYTLTISSLQPEDFATYYCQTYYGGGHIGWGFGTGTKVTVLGGGGGSGGGGSGGGGSGGGGSQSQLVESGGGRVQPGGSLRLSCAASGFSFSANYWICWVRQAPGKGLEWIVCIYIGSRADTYYAPWAKGRFTISKDNSKNTVYLQMNSLRAEDTATYFCARFSSGIYDLDRFFLWGQGTQVTVSS heavy: not shown | IC50, IL-4-induced CD23 expression, monocytes (blood donor 3) [9]: ~0.0545 nM
